Assay results published in article PMC11338637.

Legend:
[1] = target: Hir complex (Hir1/Hir2/Hir3/Hpc2) (S. cerevisiae) (UniProt P32479); experiment: SPR
ctHir3 = ctHir3 (Chaetomium thermophilum, UniProt G0S723 1-2235); experiment: fluorescence polarization

Row | KD1 (heterogeneous ligand model, fast site of weak affinity) [1] [nM] | KD2 (heterogeneous ligand model, slow site of strong affinity) [1] [nM] | Molecule | Kd (ctHir3) [nM]
1 | 196 | 18 | yeastAsf1/humanH3.3/humanH4 (from UniProt P32447 1-279; P84243 1-136; P62805 1-103) (complex) | –
2 | – | – | TAGGGAGTAATCCCCTTGGCGG (ssDNA) [ssDNA probe] | 531
3 | – | – | AAAACAAAUAUGCAUAUUAUCGAGAGG (ssRNA) [ssRNA probe] | 292
